This is an account of results in patent US10040829B2.

Assay [1] concerns the target hASCT1 receptor (human) (UniProt P43007). Kind of assay: in vivo binding in SCID mice grafted with XChASCT1 cells; anti-RGS His and anti-mouse FITC, IF reading.
Assay [2] concerns the target hASCT2 receptor (type 2 sodium-dependant neutral amino acid receptor-transporter) (human) (UniProt Q15758). The experiment in a line: in vivo binding in SCID mice grafted with XChASCT2 cells; anti-RGS His and anti-mouse FITC, IF reading.

For “soluble HERV-W Env protein of Example 7 (293T cells transfected with the plasmid 460, envelope-spacer-His6)”, the NF/NT, Mean (fluorescent cells out of 77 cells) in assay [1] turned out to be 24. This substance returned an NF/NT, Mean (fluorescent cells out of 57 cells) in assay [2] of 23.
